One block for each molecule: values may come before it.
Assays:
[1] = target: Cep63 (424–541)•Cep152 (1205–1295) heterotetrameric complex (human) (UniProt O94986); experiment: AUC; sedimentation equilibrium, 4 °C, pH 5.5 (150 mM NaCl, 50 mM citric acid/sodium citrate, 1 mM TCEP, 5% glycerol); 12.6, 25 and 55 µM fitted globally; reversible tetramer–octamer–hexadecamer model (heterotetramer to octamer, octamer to hexadecamer)
[2] = target: the molecule itself; experiment: SEC-MALS; Cep63 (440–490), Wyatt SEC-MALS system
[3] = target: the molecule itself; experiment: SEC; SEC elution of Cep63 (440–490) triple mutants (Supplementary Fig. 3d)
[4] = target: His-Cep63 (424–541) (human); experiment: AUC; sedimentation velocity, 50,000 rpm, 4 °C, 150 mM NaCl, 20 mM Tris pH 8.0, 0.5 mM TCEP, 5% glycerol
[5] = target: T1, Cep152 (1205–1295) (human, UniProt O94986-3 1205-1295); experiment: heterotetramer formation (2:2), iSCAMS; printed as <~60 nM
T1 chain: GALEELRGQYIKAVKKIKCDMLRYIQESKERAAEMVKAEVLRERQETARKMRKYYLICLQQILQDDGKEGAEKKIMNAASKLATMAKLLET

stoichiometry N (Cep63:Cep152 ratio (2:2)) [4]: 1
B3: Cep152 (1205–1295) (domain or fragment)
chain: GALEELRGQYIKAVKKIKCDMLRYIQESKERAAEMVKAEVLRERQETARKMRKYYLICLQQILQDDGKEGAEKKIMNAASKLATMAKLLET

Kd [5]: < 60 nM
B4: His-Cep63 (424–541) (domain or fragment)
chain: LHQRDITIASTKGSSSDMEKRLRAEMQKAEDKAVEHKEILDQLESLKLENRHLSEMVMKLELGLHECSLPVSPLGSIATRFLEEEELRSHHILERLDAHIEELKRESEKTVRQFTALK

More lines, now with the values behind:

Molecule: Cep63 (424–541)•Cep152 (1205–1295) heterotetrameric complex (from UniProt O94986-3 1205-1295)
Kd, octamer–octamer interaction (octamer–hexadecamer step) [1]: 2200 nM
Kd, tetramer–tetramer interaction (tetramer–octamer step) [1]: 370000 nM
k16 (dissociation constant of the hexadecamer into four tetramers, c4^4/c16) [1]: 3e-13 M^3
stoichiometry N (heterotetramers in the oligomer) [1]: 4

B1: Cep63 (440–490) (domain or fragment, human, UniProt Q96MT8 440-490, looked up)
chain: DMEKRLRAEMQKAEDKAVEHKEILDQLESLKLENRHLSEMVMKLELGLHEA
notes: Cep63, human, residues 440–490; The structure was phased by SAD; also called Cep63 (440–490) WT; Cep63 (440–490) dimer; source: E. coli BL21(DE3) RIL, purified (Ni-NTA, TEV digestion, Sephacryl S-100 HR SEC); selenomethionine-substituted protein from E. coli B834(DE3); not shown: (His)6, N-terminal, cleaved; MBP, N-terminal, cleaved
stoichiometry N [2]: 2

B2: Cep63 (440–490) (L445A, A456K, L463K) (domain or fragment, human, UniProt Q96MT8 440-490, looked up)
chain: DMEKRARAEMQKAEDKKVEHKEIKDQLESLKLENRHLSEMVMKLELGLHEA
notes: Cep63, human, residues 440–490 with L445A, A456K, L463K; also called AKK; pKM6657; source: E. coli BL21(DE3) RIL, purified (Ni-NTA, TEV digestion, Sephacryl S-100 HR SEC); not shown: (His)6, N-terminal, cleaved; MBP, N-terminal, cleaved
binding result [3]: binds

— paper PMC10336005, “Architectural basis for cylindrical self-assembly governing Plk4-mediated centriole duplication in human cells” (Communications Biology, 2023)
